Data from the supplement of paper PMC12042874.
± gives the uncertainty stated by the source.

assay: amyloid nucleation score (Sup35N fusion, yeast selection) (log enrichment); library NNK2; higher = more nucleation; inactive = no reads after selection
Procedure, shortened: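 Peptides of 20 random codons, each fused to Sup35N, were expressed in psi-negative yeast. Cells were induced with 100 μM copper sulfate for 24 hours and grown 7 days at 30°C on medium lacking adenine and uracil, and plasmid inserts before and after selection were Illumina-sequenced. Nucleation scores are DiMSum log enrichments of output over input reads, centred on the mode score of non-aggregating sequences, and sequences under 100 input reads were excluded.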

Row | Substance | amyloid nucleation score
1 | NKRELNIVV | 0.701 ± 0.43
2 | PWCGRSMYSVSGKGQMWMRA | 1.03 ± 0.4
3 | RSSLQSPWGYPKPMWLRSCA | 1.06 ± 0.33
4 | CKVHFW | 0.596 ± 0.62
5 | LLINLVPFWLILRHDYLIKF | 0.959 ± 0.74
6 | ESDLVLGRVR | 0.69 ± 0.49
7 | ARFASIWVWTLGDCWRKCSY | -0.152 ± 0.76
8 | GGHDCTVPDGFALGWYMTRG | 0.995 ± 0.51
9 | RFVKSRRATILSNDG | -0.198 ± 0.39
10 | MYTYLINVNVSDAFTLYGLE | 4.43 ± 0.056
11 | QFCSDCV | -0.9 ± 0.76
12 | VGICFDNRMVTWHLSDRQSP | 3.58 ± 0.072
13 | NSIAYPACLNKWGWIKFSSY | -1.41 ± 0.29
14 | VRWTRFQALLYLK | inactive
15 | GGMDNQCHLVRCGRRSLAPV | 1.65 ± 0.4
16 | EYMTMDELDWWSRQCFGWAQ | 1.64 ± 0.42
17 | KNLDQYCCCFNALTLSVSRS | 7.473 ± 0.051
18 | NNWYNTYYKSIKASQPRSSR | -0.797 ± 1.1
19 | ILSNELFYLLYEW | 8.798 ± 0.079
20 | TWGPWTLMSVLSCGVYGSHG | 4.3 ± 0.084
21 | AWNLFLFQSRL | 4.7 ± 0.073
22 | VVYVVHFYFEYVGNVVARAK | inactive
23 | SVVVDIKGVDWVVRVLVGKR | -0.484 ± 0.65
24 | LMFWGCSGLRWLVVLSDNKA | 3.8 ± 0.097
25 | SYDVRVAKINSPLGG | -0.397 ± 0.79

Row | Substance | amyloid nucleation score
26 | WGWKYMLEELN | -0.177 ± 0.55
27 | GMSTRQFKLLPGCREVMRAG | 0.571 ± 0.64
28 | LDITVCMRFKAPAIIWAYYF | -0.657 ± 0.48
29 | HLVVSMVRTLVCHFCRFDVS | 1.28 ± 0.41
30 | LNWFFLL | 0.937 ± 0.26
31 | WLWNNG | 0.485 ± 0.74
32 | GLFWVCAGGGKVGEYRYSGV | 0.021 ± 0.39
33 | WRDGSYLFPDVPERPSRNSG | inactive
34 | GSTVKYWCMPGSSLLLHCVY | 0.611 ± 0.66
35 | VSFKTSGKLCTAWFVWGLF | -0.108 ± 0.34
36 | AFHRECPGSSVQDWFTWRGT | -0.36 ± 0.63
37 | FSGFYLWSVDFVMLLGAWAH | inactive
38 | PSYFRNRIRLSRVGTNGYTR | -0.693 ± 1.1
39 | YFGSCPREKLGILYKELLVL | -0.563 ± 0.79
40 | SVFKMNEGFGNEHSNAPMRG | inactive
41 | PFVNVM | -0.047 ± 0.38
42 | SLGLGDVWGGQAYRSAGA | 0.2 ± 0.28
43 | CRLCSGLREMQPIRLM | 0.77 ± 0.51
44 | RVTHRQDCMNVLGSRDYFER | -0.574 ± 0.39
45 | LWVCSCSNALTNGLWGAVSL | 5.151 ± 0.036
46 | SVSGIGWFGGEQHAWS | -0.531 ± 0.79
47 | LNISYSAH | 0.264 ± 0.65
48 | CFAVAKEWLNAAVHGVGQFP | 0.123 ± 0.38
49 | SMISM | 0.947 ± 0.3
50 | LAAWLWYTWKG | 0.589 ± 0.66

Row | Substance | amyloid nucleation score
51 | NVVIRNRFWMNSGRARISAY | -0.428 ± 0.49
52 | RPLASSWAQY | 1.65 ± 0.21
53 | TNQGFLWVSPLILTRCGDRQ | 6.68 ± 0.079
54 | DANLLFGYFPCPCT | inactive
55 | TILVTKG | 4.89 ± 0.11
56 | KKSSVPTSYLYVNENFLTVL | 6.965 ± 0.054
57 | VMRAMFSRAPFGPRNSSPLN | 0.417 ± 0.37
58 | HHGQTHHLMWNWIF | 4.27 ± 0.1
59 | LCVCRPGRRSIYLMVWVWWN | -0.513 ± 0.53
60 | CDMEHTV | -0.302 ± 0.61
61 | YVTCRCRYYLSFVIPIFWKR | -0.657 ± 0.25
62 | IRNVSYDMGCELSHDMVRSR | 0.044 ± 1.1
63 | YLNSYNSC | -1.31 ± 1
64 | SVMIWIIASNIDILSVVFRL | -0.573 ± 1.1
65 | LKDETN | inactive
66 | CERWRFI | -0.02 ± 1.1
67 | WYYGLTPSQACGGEIPCDFQ | 6.523 ± 0.056
68 | FNYDSLVSTRAYPFWTVTVF | 1.52 ± 0.43
69 | FYIKRVTAVNCDTDSSFNVL | -0.805 ± 0.42
70 | NCSHGLHLNVFNLVPYKSLI | 4.9 ± 0.096
71 | FYKHMLVTATFSLMYITQDD | -0.404 ± 0.48
72 | NFDVNSRWDTRTCFLSWLKQ | inactive
73 | CSKLAGKHVNISVGPLWRAG | 0.183 ± 0.53
74 | TVSGDTSRRSRMNFSFYMQR | -0.266 ± 1.1
75 | TGELSAQHKASTYYCYCWLF | 4.43 ± 0.076

Row | Substance | amyloid nucleation score
76 | VHCSVGNINKDVSCTVVRP | 0.892 ± 0.47
77 | SDLAWGERHLLEGLLVRPTT | 0.508 ± 0.29
78 | MCGFFVIIMRC | -0.652 ± 0.74
79 | QKMLLKIWIVDRNTYSAVLN | -0.425 ± 0.74
80 | CRTRGMVRLYGTRRK | inactive
81 | RTSFRNVMTIMTSPHVVTFI | -0.149 ± 0.4
82 | LIIDSGYPSGS | 0.458 ± 0.8
83 | YFCPVPYLAPVLCRLFKVKL | -0.87 ± 1
84 | STVICSVYFDVVASFDIVYI | 1.39 ± 0.24
85 | TAAGLFISNNHMNYFDAIAY | -1.09 ± 0.78
86 | DMERLAGYLQVRSKGMMRHT | 0.155 ± 0.42
87 | WGCQLRSMQTMTRHR | 0.949 ± 0.74
88 | RWYSTRCTVEFINATSIVRA | -0.531 ± 1.1
89 | GGSRTRSCQDRAHEGGK | 0.949 ± 0.74
90 | YMTWQFITACMLTCSKSILS | 0.264 ± 0.49
91 | MFVYADFSHILEKRGHTGNR | 2.64 ± 0.15
92 | CLISRLIVL | -0.038 ± 0.79
93 | VHPGMNLDMSNACSAFVRTW | -0.631 ± 1
94 | YMKVGFARWMGRPG | 3.89 ± 0.06
95 | EMVIGMFKCTLISSIVLKTC | 0.484 ± 0.23
96 | QLESKRWWDIGWCSYLAGGW | 4.92 ± 0.068
97 | RVRERIQIYLLLSGQDQFKM | 3.6 ± 0.14
98 | FMFPGRRPFPIAMWELRFFS | -0.427 ± 1.1
99 | LHIDGNENRFLHRDGKRQEA | 0.245 ± 0.39
100 | DWVFMRKCSPCWWYYIHLMS | -0.468 ± 0.64

Row | Substance | amyloid nucleation score
101 | LERFEH | 2.01 ± 0.24
102 | RSSRVEYSCLDGRMRELRGS | -0.443 ± 0.48
103 | MCCGCVNVFFMHARHVLGWS | 8.977 ± 0.038
104 | GDRYSSYSRFEEY | 0.565 ± 0.19
105 | NDGAIGIVAPGEHLLVRDVK | -0.573 ± 0.41
106 | SVLIAQLDAAYGISVVRSPG | 0.264 ± 0.18
107 | ILIRLLTKVLTMLNDMH | 0.136 ± 0.65
108 | TNWGNAVSSAMRLGSL | 0.438 ± 0.28
109 | HMHQPSSPHLLLCV | -0.47 ± 0.46
110 | MLFSTATYSSGRRFDFVEIA | 0.422 ± 0.65
111 | SLNVVMGAD | -1.15 ± 0.76
112 | KSASRYNRQWNRHSYWMANR | -0.064 ± 0.34
113 | CLQCYYRMSDNCFHSTA | 5.114 ± 0.04
114 | DEIIQRWIFNFIWDRLFYLR | 0.94 ± 0.14
115 | TDITKVSGTFNHSMEPIWYT | inactive
116 | VPSTIWMTR | 0.585 ± 0.38
117 | NLRMVG | 0.182 ± 1.1
118 | IIPQNSQDQNRDISVKAFSV | -0.937 ± 0.61
119 | RADGSFMKLLA | -0.628 ± 0.5
120 | RCLPISTIVF | 2.43 ± 0.16
121 | QFVGFVRWFVWEWGLLVID | 0.706 ± 0.81
122 | KVSHAWM | 0.704 ± 0.53
123 | IIVNMKLVDTS | 0.138 ± 1.1
124 | VTKSRRFSFLYYVESLHNRC | 4.25 ± 0.048
125 | PDDLYCNPEGSLYQSIW | inactive

Row | Substance | amyloid nucleation score
126 | WKQEYFG | -0.508 ± 0.63
127 | SSTKFAHTFVHNKWVYSGFS | 2.46 ± 0.11
128 | ASGKWHSCAGSGDYM | -0.453 ± 0.33
129 | RLSVAFRRVRDRYVLLIFLP | 0.548 ± 0.55
130 | MTIVVSDCTSVSDVFIGLGN | 2.29 ± 0.076
131 | NGTFSCGERVIEINDDSLSD | 0.486 ± 0.8
132 | TGPGSFFRRSGDTHLYSRDG | inactive
133 | PWFKTFWSNMWAVTGW | -0.436 ± 1.1
134 | MYNRSRLSFA | -0.666 ± 1
135 | GSWFPFWLSASMHGSCIYTR | -0.576 ± 0.44
136 | IEGTVRYYPVSNFT | inactive
137 | HFGDIDKYRAADAGVVERNP | 4.25 ± 0.083
138 | RVGIH | 1.52 ± 0.22
139 | ASMDSSVPRAGDAGRSDMSS | 2.26 ± 0.14
140 | IRVICRIWCLFLSL | 0.087 ± 0.55
141 | WSWGGHAVMFY | -0.424 ± 1.1
142 | CILLGSWLVNFYVWWSRMPI | -0.031 ± 1
143 | APFQRPSSPTDREYRNGALL | 1.27 ± 0.23
144 | NNLTKWLNHWRYFRFSSALE | -0.178 ± 0.5
145 | VPSSEYFIVFVCRPLLIVSL | inactive
146 | QDDGM | -0.826 ± 0.41
147 | LCQIANNSVGLRKDQEGLR | 0.375 ± 0.41
148 | ISNLQGFLLQNSDLAHSWVA | 1.28 ± 0.15
149 | CRDSPVKNQGPYLGFM | inactive
150 | SKYLCRICDPMHLNLFCRWQ | 4.11 ± 0.059

Row | Substance | amyloid nucleation score
151 | RLLRLDQKQIMVRSSSAVLR | -0.107 ± 0.32
152 | TYSGEIKL | inactive
153 | YVQSVHFSSMILQINPGSFN | 4.94 ± 0.065
154 | QVLTMNRLWVVPPAHYCVVG | 0.84 ± 0.53
155 | RYNTYML | -1.33 ± 0.36
156 | RRGNWKMSFFRMLTVNP | -0.488 ± 0.55
157 | RLYVTSYIY | 3.26 ± 0.098
158 | KSSNHITRFRSHSMETSRMV | inactive
159 | GRMWEMACFLATNMLGKSDS | 0.959 ± 0.29
160 | YNVQFTSEIVSE | 0.001 ± 0.35
161 | TPDVLGLRHYRLTIVTYH | 1.22 ± 0.31
162 | TYFVVGDSLSVIFSGRNWGV | 5.408 ± 0.043
163 | KLMVPA | 0.248 ± 0.28
164 | TSANLLLYRVLKSFLARQHQ | 0.062 ± 0.46
165 | VKIWDHKCSLRGYWVKWMIG | 1.45 ± 0.3
166 | KSLDFR | 0.493 ± 0.46
167 | CNYRVA | 0.276 ± 0.39
168 | VLILNQE | inactive
169 | CLDPTDTMMRW | 0.82 ± 0.3
170 | LGEIVHLTVDASIRSSDR | 5.13 ± 0.088
171 | TLLWSRTMYVGIPSYRYGGA | 0.676 ± 0.8
172 | PYSTTNGHSGVWLRWLKGPC | 0.569 ± 0.27
